Test results published in patent publication US20240174727A1, “LONG-ACTING NATRIURETIC PEPTIDES AND USES THEREOF” (Eli Lilly and Company, priority 2022, published 2024).
Positions count from the first letter of the chain named.

T1: human NPRA (human, UniProt P16066 33-1061)
T1 sequence (looked up): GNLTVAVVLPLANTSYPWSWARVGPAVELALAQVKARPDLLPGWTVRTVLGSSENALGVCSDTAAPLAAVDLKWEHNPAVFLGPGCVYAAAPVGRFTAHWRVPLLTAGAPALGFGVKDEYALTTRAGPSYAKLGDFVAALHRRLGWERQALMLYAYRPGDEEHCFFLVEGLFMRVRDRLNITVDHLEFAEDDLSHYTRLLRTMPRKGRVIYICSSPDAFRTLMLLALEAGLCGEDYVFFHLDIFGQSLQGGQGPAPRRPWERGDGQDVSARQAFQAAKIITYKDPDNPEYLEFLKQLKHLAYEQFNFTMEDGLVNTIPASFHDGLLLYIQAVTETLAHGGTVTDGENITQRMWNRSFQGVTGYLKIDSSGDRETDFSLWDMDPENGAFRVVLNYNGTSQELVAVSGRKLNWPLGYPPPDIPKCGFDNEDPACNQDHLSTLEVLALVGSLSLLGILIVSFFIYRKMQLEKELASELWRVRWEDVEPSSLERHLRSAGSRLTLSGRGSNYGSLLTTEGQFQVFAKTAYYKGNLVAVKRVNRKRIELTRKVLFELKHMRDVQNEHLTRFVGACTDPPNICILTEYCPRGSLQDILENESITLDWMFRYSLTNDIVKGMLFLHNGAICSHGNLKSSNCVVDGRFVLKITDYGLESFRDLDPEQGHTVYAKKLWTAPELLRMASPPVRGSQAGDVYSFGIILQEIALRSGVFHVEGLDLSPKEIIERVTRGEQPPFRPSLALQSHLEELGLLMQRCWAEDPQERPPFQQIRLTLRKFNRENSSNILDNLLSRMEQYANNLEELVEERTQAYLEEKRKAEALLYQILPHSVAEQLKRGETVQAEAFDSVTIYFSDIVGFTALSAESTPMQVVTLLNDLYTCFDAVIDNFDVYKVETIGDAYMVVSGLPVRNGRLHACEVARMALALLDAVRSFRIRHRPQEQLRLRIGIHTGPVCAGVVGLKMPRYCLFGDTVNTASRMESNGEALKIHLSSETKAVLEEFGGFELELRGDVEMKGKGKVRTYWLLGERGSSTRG

B1: Example 47 (peptide)
peptide: XEKEKEKGRSSCFGGKIDRIGHYSGLGCPSFRHKGPSSGAPPPS
modifications: HOOC-(CH2)18-CO-(γGlu)-EKEKEKGRSS[CFGGKIDRIGHYSGLGC]PSFRHKGPSSGAPPPS-NH2; disulfide linkage between the bracketed Cys
B2: Example 49 (peptide)
peptide: XEKEKEKGEKERSSCFGGRIDRIGHYSGLGCPSFRHGGPSSGAPPPS
modifications: HOOC-(CH2)18-CO-(γGlu)-EKEKEKGEKERSS[CFGGRIDRIGHYSGLGC]PSFRHGGPSSGAPPPS-NH2; disulfide linkage between the bracketed Cys
B3: Example 50 (peptide)
peptide: XEKEKEKGEKGRSSCFGGRIDRIGHYSGLGCPSFRHKGGPSSGAPPPS
modifications: HOOC-(CH2)18-CO-(γGlu)-EKEKEKGEKGRSS[CFGGRIDRIGHYSGLGC]PSFRHKGGPSSGAPPPS-NH2; disulfide linkage between the bracketed Cys
B4: Example 77 (peptide)
peptide: EKXRSSCFGGRIDRIGHYSGLGCPSFRHGGKSSGAPPPS
modifications: HOOC-(CH2)18-CO-(γGlu)-EKEKEKG-PEG12-EK-βAla-RSS[CFGGRIDRIGHYSGLGC]PSFRHGGKSSGAPPPS-NH2; thioacetal linkage between the bracketed Cys
B5: Example 78 (peptide)
peptide: B4 peptide
modifications: HOOC-(CH2)18-CO-(γGlu)-EKEKEKG-PEG24-EK-βAla-RSS[CFGGRIDRIGHYSGLGC]PSFRHGGKSSGAPPPS-NH2; thioacetal linkage between the bracketed Cys
B6: Example 85 (peptide)
peptide: B2 peptide with E11X, G18K, Y26Q, P39K
modifications: HOOC-(CH2)18-CO-(γGlu)-EKEKEKGEK-βAla-RSS[CFGKRIDRIGHQSGLGC]PSFRHGGKSSGAPPPS-NH2; thioacetal linkage between the bracketed Cys
B7: Example 97 (peptide)
peptide: SXRRSSCFGGRIDRIGHYSGLGCPSFRHGGPPSXKPPPK
modifications: HOOC-(CH2)18-CO-(γGlu)-EKEKEKG-(AEEA)6-S-4Pal-RRSS[CFGGRIDRIGHYSGLGC]PSFRHGGPPS-Aib-KPPPK-NH2; thioacetal linkage between the bracketed Cys

Target: T1, human NPRA
Test: cell-based or functional assay

Binder	cGMP Assay (EC50, pM) w/Casein	cGMP Assay (EC50, pM) w/BSA
B1	299 pM	
B2	299 pM	
B3	614 pM	
B4	1270 pM	
B5		19700 pM
B6	361 pM	
B7	720 pM	
